B1: POMT2 (parent)
chain: YHEAPMTRKHYQVTGYGINGTGDS
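Further: lentivirally expressed fusions sorted by FACS into six bins by GFP to DsRed ratio, PSI derived from sequencing read proportions per bin multiplied by bin number.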

The variants in this series derive from B1. Put plainly: protein stability index of a GFP-peptide fusion (GPS, HEK-293T) (PSI 1-6); higher = more stable. The conditions noted are these: c terminus: a fixed tail appended.
YHEAPMTRKHYQVTKYGINGTGDS [G15K]: the protein stability index came to 2.71.
On to YHEAPMTRKHYQVTTYGINGTGDS [G15T], for which the protein stability index turned out to be 2.78.
The same measure for YHEAPMTRKHYQVTQYGINGTGDS [G15Q]: 1.88; for YHEAPMTRKHYQVTSYGINGTGDS [G15S]: 2.14.
As for YHEAPMTRKHYQVTEYGINGTGDS [G15E], the protein stability index amounted to 3.36.
The same measure for YHEAPMTRKHYQVTVYGINGTGDS [G15V]: 1.44; for YHEAPMTRKHYQVTFYGINGTGDS [G15F]: 1.19.
In the case of YHEAPMTRKHYQVTPYGINGTGDS [G15P], the protein stability index is 2.86.
The same measure for YHEAPMTRKHYQVTLYGINGTGDS [G15L]: 1.51; for YHEAPMTRKHYQVTCYGINGTGDS [G15C]: 2.01.
Consider YHEAPMTRKHYQVTAYGINGTGDS [G15A], for which the protein stability index turned out to be 2.25.
The figure for YHEAPMTRKHYQVTHYGINGTGDS [G15H] is 2.63; for YHEAPMTRKHYQVTIYGINGTGDS [G15I] it is 1.59.
Regarding YHEAPMTRKHYQVTNYGINGTGDS [G15N], the protein stability index amounted to 2.04.
For the variant YHEAPMTRKHYQVTWYGINGTGDS [G15W], the protein stability index amounted to 2.28.
YHEAPMTRKHYQVTDYGINGTGDS [G15D]: the protein stability index came out at 2.31.
With YHEAPMTRKHYQVTYYGINGTGDS [G15Y], the protein stability index is 2.44.
As to YHEAPMTRKHYQVTRYGINGTGDS [G15R], the protein stability index turned out to be 2.02.
The figure for YHEAPMTRKHYQVTMYGINGTGDS [G15M] is 2.03; for YHEAPMTRKHYEVTGYGINGTGDS [Q12E] it is 2.41.
With YHEAPMTRKHYWVTGYGINGTGDS [Q12W], the protein stability index was found to be 1.91.
On to YHEAPMTRKHYGVTGYGINGTGDS [Q12G], for which the protein stability index was 2.08.
In the case of YHEAPMTRKHYVVTGYGINGTGDS [Q12V], the protein stability index was found to be 2.36.
Regarding YHEAPMTRKHYFVTGYGINGTGDS [Q12F], the protein stability index was 2.28.
With YHEAPMTRKHYSVTGYGINGTGDS [Q12S], the protein stability index is 2.22.
As to YHEAPMTRKHYDVTGYGINGTGDS [Q12D], the protein stability index was 3.05.
The same measure for YHEAPMTRKHYMVTGYGINGTGDS [Q12M]: 2.34; for YHEAPMTRKHYHVTGYGINGTGDS [Q12H]: 2.07.
In the case of YHEAPMTRKHYCVTGYGINGTGDS [Q12C], the protein stability index amounted to 2.08.
For YHEAPMTRKHYTVTGYGINGTGDS [Q12T], the protein stability index turned out to be 2.16.
For the variant YHEAPMTRKHYNVTGYGINGTGDS [Q12N], the protein stability index came out at 2.85.
Take YHEAPMTRKHYAVTGYGINGTGDS [Q12A]: the protein stability index was determined as 1.96.
With YHEAPMTRKHYRVTGYGINGTGDS [Q12R], the protein stability index amounted to 1.88.
Consider YHEAPMTRKHYIVTGYGINGTGDS [Q12I], for which the protein stability index amounted to 1.97.
Regarding YHEAPMTRKHYKVTGYGINGTGDS [Q12K], the protein stability index is 2.24.
For the variant YHEAPMTRKHYLVTGYGINGTGDS [Q12L], the protein stability index amounted to 2.29.
The same measure for YHEAPMTRKHYPVTGYGINGTGDS [Q12P]: 2.37; for YHEAPMTRKHYYVTGYGINGTGDS [Q12Y]: 2.46.
For the variant YHEAPMTRKHYQVTGAGINGTGDS [Y16A], the protein stability index was found to be 2.48.
The same measure for YHEAPMTRKHYQVTGCGINGTGDS [Y16C]: 2.51; for YHEAPMTRKHYQVTGDGINGTGDS [Y16D]: 3.66.
The figure for YHEAPKTRKHYQVTGYGINGTGDS [M6K] is 2.55; for YHEAPHTRKHYQVTGYGINGTGDS [M6H] it is 1.69; for YHEAPRTRKHYQVTGYGINGTGDS [M6R] it is 2.7.
The figure for YHEAPITRKHYQVTGYGINGTGDS [M6I] is 2.83; for YHEAPPTRKHYQVTGYGINGTGDS [M6P] it is 2.55.
On to YHEAPSTRKHYQVTGYGINGTGDS [M6S], for which the protein stability index was found to be 2.59.
YHEAPVTRKHYQVTGYGINGTGDS [M6V]: the protein stability index was 2.67.
Regarding YHEAPTTRKHYQVTGYGINGTGDS [M6T], the protein stability index stood at 2.43.
The same measure for YHEAPYTRKHYQVTGYGINGTGDS [M6Y]: 1.98; for YHEAPNTRKHYQVTGYGINGTGDS [M6N]: 2.15.
The same measure for YHEAPQTRKHYQVTGYGINGTGDS [M6Q]: 2.68; for YHEAPGTRKHYQVTGYGINGTGDS [M6G]: 2.38.
The figure for YHEAPWTRKHYQVTGYGINGTGDS [M6W] is 1.42; for YHEAPLTRKHYQVTGYGINGTGDS [M6L] it is 2.41.
With YHEAPMTRKNYQVTGYGINGTGDS [H10N], the protein stability index amounted to 2.92.
In the case of YHEAPMTRKGYQVTGYGINGTGDS [H10G], the protein stability index is 3.05.
With YHEAPMTRKIYQVTGYGINGTGDS [H10I], the protein stability index was 2.79.
With YHEAPMTRKQYQVTGYGINGTGDS [H10Q], the protein stability index was found to be 2.87.
For YHEAPMTRKCYQVTGYGINGTGDS [H10C], the protein stability index came to 2.66.
On to YHEAPMTRKSYQVTGYGINGTGDS [H10S], for which the protein stability index turned out to be 2.36.
As for YHEAPMTRKKYQVTGYGINGTGDS [H10K], the protein stability index turned out to be 2.58.
Regarding YHEAPMTRKLYQVTGYGINGTGDS [H10L], the protein stability index was 1.51.
Take YHEAPMTRKYYQVTGYGINGTGDS [H10Y]: the protein stability index is 1.33.
For the variant YHEAPMTRKPYQVTGYGINGTGDS [H10P], the protein stability index is 2.37.
The same measure for YHEAPMTRKRYQVTGYGINGTGDS [H10R]: 1.94.
In the case of YHEAPMTRKDYQVTGYGINGTGDS [H10D], the protein stability index turned out to be 3.54.
The same measure for YHEAPMTRKVYQVTGYGINGTGDS [H10V]: 1.91.
As for YHEAPMTRKWYQVTGYGINGTGDS [H10W], the protein stability index turned out to be 2.49.
Consider YHEAPMTRKAYQVTGYGINGTGDS [H10A], for which the protein stability index amounted to 1.86.
Consider YHEAPMTRKFYQVTGYGINGTGDS [H10F], for which the protein stability index stood at 2.5.
On to YHEAPMTRKEYQVTGYGINGTGDS [H10E], for which the protein stability index turned out to be 3.02.
Consider YHEAPMTRKTYQVTGYGINGTGDS [H10T], for which the protein stability index was 2.08.
YHEAPMTRKMYQVTGYGINGTGDS [H10M]: the protein stability index is 1.94.
With YHEAPMTRKHAQVTGYGINGTGDS [Y11A], the protein stability index was 3.38.
For the variant YHEAPMTRKHKQVTGYGINGTGDS [Y11K], the protein stability index is 3.14.
For the variant YHEAPMTRKHGQVTGYGINGTGDS [Y11G], the protein stability index turned out to be 3.23.
Take YHEAPMTRKHRQVTGYGINGTGDS [Y11R]: the protein stability index was determined as 2.56.
As to YHEAPMTRKHNQVTGYGINGTGDS [Y11N], the protein stability index came out at 3.15.
Take YHEAPMTRKHVQVTGYGINGTGDS [Y11V]: the protein stability index is 3.22.
The figure for YHEAPMTRKHHQVTGYGINGTGDS [Y11H] is 2.93; for YHEAPMTRKHTQVTGYGINGTGDS [Y11T] it is 3.17.
With YHEAPMTRKHWQVTGYGINGTGDS [Y11W], the protein stability index is 1.7.
Regarding YHEAPMTRKHMQVTGYGINGTGDS [Y11M], the protein stability index was determined as 2.98.
As to YHEAPMTRKHPQVTGYGINGTGDS [Y11P], the protein stability index was 3.14.
Regarding YHEAPMTRKHQQVTGYGINGTGDS [Y11Q], the protein stability index was found to be 3.57.
In the case of YHEAPMTRKHEQVTGYGINGTGDS [Y11E], the protein stability index was found to be 3.98.
On to YHEAPMTRKHDQVTGYGINGTGDS [Y11D], for which the protein stability index is 3.77.
For YHEAPMTRKHLQVTGYGINGTGDS [Y11L], the protein stability index stood at 2.75.
The same measure for YHEAPMTRKHFQVTGYGINGTGDS [Y11F]: 2.01; for YHEAPMTRKHCQVTGYGINGTGDS [Y11C]: 3.06; for YHEAPMTRKHIQVTGYGINGTGDS [Y11I]: 2.77.
On to YHEAPMTRKHSQVTGYGINGTGDS [Y11S], for which the protein stability index turned out to be 3.03.
As to YHEAPMTRAHYQVTGYGINGTGDS [K9A], the protein stability index turned out to be 2.31.

Values taken from the supplement of paper PMC10567573.
